We go through six molecules from publication PMC11277499, “Structural Basis for the Interaction between the Ezrin FERM-Domain and Human Aquaporins” (International Journal of Molecular Sciences, 2024).

In one assay the test system is Ezrin. The settings on record: co-IP and PLA, NS-SV-AC cells; ref [31]; cited from earlier work. An excerpt:
(§1) Several mammalian AQP isoforms have been proposed to directly interact with Ezrin during trafficking.

Assay [1] deals with T1, human ezrin FERM-domain (residues 1–295) (Homo sapiens, UniProt P15311).
T1 construct: human ezrin FERM-domain (residues 1–295); 8xHis-tag (N); TEV cleavage site (N); made in house; host or cells: E. coli BL21*
T1 sequence (P15311 1-295): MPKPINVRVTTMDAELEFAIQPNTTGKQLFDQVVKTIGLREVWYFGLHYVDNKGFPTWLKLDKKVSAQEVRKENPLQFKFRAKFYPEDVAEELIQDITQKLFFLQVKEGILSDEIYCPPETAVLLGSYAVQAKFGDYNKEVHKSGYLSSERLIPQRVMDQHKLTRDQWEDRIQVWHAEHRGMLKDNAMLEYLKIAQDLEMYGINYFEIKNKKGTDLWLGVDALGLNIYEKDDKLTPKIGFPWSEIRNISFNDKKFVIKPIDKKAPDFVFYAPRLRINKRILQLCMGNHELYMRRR
Nature of the assay: Microscale thermophoresis (MST), binding to FERM-Alexa488. As to conditions: Z-test for population means; for Affinity for FERM, full-length AQP compared with its C-terminal tail: significant if p < 0.05. As to the method: For each AQP, a 1:1 dilution series was made resulting in 12 samples with a concentration range of 0.0419–86.0 μM for AQP2 and 0.029–60.6 μM for AQP5. The samples were mixed with an equal volume of FERM that had been labelled with Alexa-488, transferred to MST capillaries, and MST traces were recorded (Figure S1). From these traces, the difference in normalized fluorescence before and after heating was used to generate a binding curve for each AQP from which the dissociation constant (Kd) could be determined (Figure 3a).
This artefact became even more prominent when the AQP concentration was increased further. As a result, AQP concentrations that would lead to saturation could not be used in the case of AQP5, wherefore the estimated Kd-value should be evaluated with caution.
Next, we set out to investigate if the interaction between FERM and AQP2/AQP5 is mediated by the AQP C-termini as previously proposed. For this purpose, we expressed the AQP2 and AQP5 C-terminal tails (residues 227–271 and 228–265 for AQP2 and AQP5 respectively) as GST-fusion constructs in E. coli. The purified GST-AQP constructs were then cleaved with thrombin, allowing AQP2 and AQP5 C-termini to be separated from the GST-tag. For each AQP C-terminal peptide, a 1:1 dilution series was made resulting in 12 samples for AQP2 (0.072–294.5 μM) and 16 samples (0.001–337.5 μM) for AQP5, mixed with fluorescently labelled FERM, and MST-traces were recorded and analyzed as described above (Figure S1). […] This confirms the C-terminus as the region responsible for the FERM-interaction for both AQP2 and AQP5.
The E. coli codon-optimized gene for the human ezrin FERM-domain (residues 1–295) was synthesized (Genscript, Piscataway, NJ, USA) and cloned into pET15b using the NdeI and BamHI sites. The final construct contained an N-terminal 8xHis-tag followed by a TEV cleavage site. The plasmid was transformed into calcium-competent E. coli cells BL21* by heat shock. 2x1L LB-media supplemented with 100 μg/mL ampicillin was inoculated with a 5 mL overnight culture. […]
(In general: MST reads how a fluorescent partner responds to local heating, with and without ligand.)

Assay [2] addresses T2, human ezrin FERM-domain (residues 1-295), labelled with Alexa-488 (human, UniProt P15311 1-295, cysteine-reactive C5 maleimide-Alexa 488 on cysteines).
T2 construct: ezrin, human, FERM-domain, residues 1-295; the construct has an N-terminal 8xHis-tag followed by a TEV cleavage site; No TEV cleavage is described in the purification; codon-optimised synthetic gene in pET15b; also called FERM-Alexa488; source: E. coli BL21*, purified (His-trap)
The assay can be described thus: MST; AQP (full-length or C-terminal peptide) in a 1:1 dilution series mixed with FERM-Alexa488 at 0.125 uM (0.129 uM for the AQP5 C-terminus); Monolith NT.115, room temperature, LED and MST power 80%; premium capillaries (full-length AQP) or standard capillaries (peptides); three dilution series; one-to-one binding model on monomeric AQP concentration. The settings on record: both partners purified.

The next assay deals with LIP5. As to conditions: compared with construct truncated immediately after the amphipathic helix; ref [36] Roche et al., 2017; cited from earlier work. The text has this:
Moreover, introduction of pho ...

The subject of the next assay is Ezrin FERM-domain. The settings on record: co-IP and pull-down; ref [30]; cited from earlier work.
Description: as §1

Residues, ends and D or L forms follow the SMILES beside them.

T2 sequence (P15311 1-295): as above

As for “full-length AQP5: human aquaporin 5, untagged, recombinantly produced in Pichia pastoris”, the “Interaction of AQP5 with ezrin” value with Ezrin is given as “identified an interaction”. Moreover, the “Affinity for FERM, full-length AQP compared with its C-terminal tail” value in assay [1] is “significant difference between full-length AQP5 and the AQP5 C-terminal tail (p < 0.05)”.

Consider `CC[C@H](C)[C@H](NC(=O)[C@H](C)NC(=O)[C@@H](NC(=O)[C@H](CCCNC(=N)N)NC(=O)[C@H](CCC(=O)O)NC(=O)[C@H](CO)NC(=O)[C@H](CC(C)C)NC(=O)[C@H](CO)NC(=O)[C@H](CC(C)C)NC(=O)[C@H](CO)NC(=O)[C@H](CC(N)=O)NC(=O)[C@H](CO)NC(=O)CN)C(C)C)C(=O)N[C@H](C(=O)N[C@@H](CCCCN)C(=O)NCC(=O)N[C@H](C(=O)N[C@@H](Cc1ccc(O)cc1)C(=O)N[C@@H](CCC(=O)O)C(=O)N1CCC[C@H]1C(=O)N[C@@H](CC(=O)O)C(=O)N[C@@H](CCC(=O)O)C(=O)N[C@@H](CC(=O)O)C(=O)N[C@@H](Cc1c[nH]c2ccccc12)C(=O)N[C@@H](CCC(=O)O)C(=O)N[C@@H](CCC(=O)O)C(=O)N[C@@H](CCC(N)=O)C(=O)N[C@@H](CCCNC(=N)N)C(=O)N[C@@H](CCC(=O)O)C(=O)N[C@@H](CCC(=O)O)C(=O)N[C@@H](CCCNC(=N)N)C(=O)N[C@@H](CCCCN)C(=O)N[C@@H](CCCCN)C(=O)N[C@H](C(=O)N[C@@H](CCSC)C(=O)N[C@@H](CCC(=O)O)C(=O)N[C@@H](CC(C)C)C(=O)N[C@H](C(=O)N[C@H](C(=O)N[C@@H](CCCNC(=N)N)C(=O)O)[C@@H](C)O)[C@@H](C)O)[C@@H](C)O)[C@@H](C)O)[C@@H](C)CC` [AQP5 C-terminal peptide] (H-GSNSLSLSERVAIIKGTYEPDEDWEEQREERKKTMELTTR-OH; N-terminus and C-terminus assumed), for which the “Affinity for FERM, AQP5 C-terminal peptide compared with AQP2 C-terminal peptide” value in assay [1] is on record as “somewhat higher (p < 0.05)”.

B1: AQP2 C-terminal tail (residues 227-271) (peptide, UniProt P41181 227-271, looked up)
chain: AKSLSERLAVLKGLEPDTDWEEREVRRRQSVELHSPQSLPRGTKA
notes: aquaporin 2, human, C-terminal tail, residues 227-271; also called AQP2 C-terminal peptide; AQP2 C-terminus; source: E. coli BL21*, GST fusion purified (GSTrap), cleaved with thrombin, separated from GST
Turning to B1, binding in assay [2] was put at a Kd of 8.7 ± 2.4 µM.

B2: AQP5 C-terminal tail (residues 228-265) (peptide, UniProt P55064 228-265, looked up)
chain: NSLSLSERVAIIKGTYEPDEDWEEQREERKKTMELTTR
notes: aquaporin 5, human, C-terminal tail, residues 228-265; Cloned into pET41a (SpeI, AvrII) with a thrombin site (LVPRGS) between GST and the AQP5 C-terminus; also called AQP5 C-terminal peptide; AQP5 C-terminus; source: E. coli BL21*, GST fusion purified (GSTrap), cleaved with thrombin, separated from GST
In the case of B2, binding in assay [2] was characterised by a dissociation constant (Kd) of 2.9 ± 0.89 µM.

B3: full-length human AQP2 (natural protein, UniProt P41181 1-271, looked up)
chain: MWELRSIAFSRAVFAEFLATLLFVFFGLGSALNWPQALPSVLQIAMAFGLGIGTLVQALGHISGAHINPAVTVACLVGCHVSVLRAAFYVAAQLLGAVAGAALLHEITPADIRGDLAVNALSNSTTAGQAVTVELFLTLQLVLCIFASTDERRGENPGTPALSIGFSVALGHLLGIHYTGCSMNPARSLAPAVVTGKFDDHWVFWIGPLVGAILGSLLYNYVLFPPAKSLSERLAVLKGLEPDTDWEEREVRRRQSVELHSPQSLPRGTKA
notes: aquaporin 2, human, full-length, with an uncleavable His-tag attached to the N-terminus; kept in detergent (0.2% NG); The Kd is fitted on the monomeric AQP concentration; also called Aquaporin 2; source: Pichia pastoris, purified (NG-solubilised membranes, HisTrap, SEC); not shown: His-tag, N-terminal, kept
In assay [2], B3 showed a Kd of 7.8 ± 3.8 µM.

B4: full-length AQP2: human aquaporin 2, recombinantly produced in Pichia pastoris, His-tag at the N-terminus (protein)
chain: MWELRSIAFSRAVFAEFLATLLFVFFGLGSALNWPQALPSVLQIAMAFGLGIGTLVQALGHISGAHINPAVTVACLVGCHVSVLRAAFYVAAQLLGAVAGAALLHEITPADIRGDLAVNALSNSTTAGQAVTVELFLTLQLVLCIFASTDERRGENPGTPALSIGFSVALGHLLGIHYTGCSMNPARSLAPAVVTGKFDDHWVFWIGPLVGAILGSLLYNYVLFPPAKSLSERLAVLKGLEPDTDWEEREVRRRQSVELHSPQSLPRGTKA
modifications: left off: His-tag, N-terminal, kept
notes: human aquaporin 2, recombinantly produced in Pichia pastoris, His-tag at the N-terminus
B4: in the assay on LIP5, the “Affinity for LIP5” value is “higher affinity”. Moreover, the “Interaction of AQP2 C-terminal tail with ezrin FERM-domain” value with Ezrin FERM-domain is recorded as “direct interaction”. Besides, the “Affinity for FERM, full-length AQP compared with its C-terminal tail” value in assay [1] is recorded as “highly similar”.

A word on the Kd: it is the concentration at which binding is half-saturated. Read a low Kd as tighter binding.
